Measured values taken from US9266937 (UNIVERSITY OF CENTRAL FLORIDA RESEARCH FOUNDATION, dated 2016).

Target: T1, IL-7R/Fc fusion protein
T1 construct: Loaded on the SPR chip; also called IL-7 receptor
Test: SPR, IL-7R/Fc loaded chip, Scrubber2
Procedure: Fc fusion protein was determined by surface plasmon resonance (SPR). Association (Ka), Dissociation (Kd) and total binding constant (KD) were calculated using the Scrubber2 program (BioLogic Software).

T1 sequence (P16871 whole entry, the tested form may be a part): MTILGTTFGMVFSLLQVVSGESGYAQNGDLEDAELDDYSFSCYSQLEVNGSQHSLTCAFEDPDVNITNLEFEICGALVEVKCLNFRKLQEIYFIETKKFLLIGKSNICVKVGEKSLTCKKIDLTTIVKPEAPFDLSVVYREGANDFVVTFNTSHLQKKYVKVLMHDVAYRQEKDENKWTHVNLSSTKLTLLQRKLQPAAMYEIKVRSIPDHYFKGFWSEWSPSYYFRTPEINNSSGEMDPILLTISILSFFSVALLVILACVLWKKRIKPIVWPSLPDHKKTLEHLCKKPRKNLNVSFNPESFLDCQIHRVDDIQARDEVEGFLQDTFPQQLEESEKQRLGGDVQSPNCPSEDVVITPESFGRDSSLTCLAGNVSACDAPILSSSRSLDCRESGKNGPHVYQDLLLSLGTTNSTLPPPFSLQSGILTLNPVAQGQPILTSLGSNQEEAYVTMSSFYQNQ

Kd: 100 nM
B1: IL-7AT, attenuated IL-7 with Thr97 substituted by Val (ligand)
chain: DCDIEGKDGKQYESVLMVSIDQLLDSMKEIGSNCLNNEFNFFKRHICDANKEGMFLFRAARKLRQFLKMNSVGDFDLHLLKVSEGTTILLNCTGQVKGRKPAALGEAQPTKSLEENKSLKEQKKLNDLCFLKRLLQEIKTCWNKILMGTKEH
notes: also called IL-7 ligand; HMM-IL-7AT
